Holding throughout (assay): cleavage_in_vitro
Series [1] has as its system T1, AvrII (Anabaena variabilis).
T1 sequence: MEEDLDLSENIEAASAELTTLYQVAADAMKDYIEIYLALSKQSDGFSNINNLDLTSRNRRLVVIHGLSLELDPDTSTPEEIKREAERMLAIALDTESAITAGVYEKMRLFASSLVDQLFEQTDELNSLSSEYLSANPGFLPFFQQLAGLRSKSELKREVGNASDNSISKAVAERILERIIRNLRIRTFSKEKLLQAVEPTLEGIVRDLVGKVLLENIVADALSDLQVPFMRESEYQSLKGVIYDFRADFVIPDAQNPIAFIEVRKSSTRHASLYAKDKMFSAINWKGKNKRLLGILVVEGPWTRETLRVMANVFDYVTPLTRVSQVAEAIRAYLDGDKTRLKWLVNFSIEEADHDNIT
The following applies: NEB1, 10 mM MgCl2, 37 C.

In series [2] the test system is T2, AvrII-HF Y104F (Anabaena variabilis).
T2 sequence: T1 sequence with Y104F
The note with it: NEB4, 10 mM Mg acetate, 37 C.

Series [3] deals with T3, SalI (Streptomyces albus G) (UniProt Q53608).
T3 sequence: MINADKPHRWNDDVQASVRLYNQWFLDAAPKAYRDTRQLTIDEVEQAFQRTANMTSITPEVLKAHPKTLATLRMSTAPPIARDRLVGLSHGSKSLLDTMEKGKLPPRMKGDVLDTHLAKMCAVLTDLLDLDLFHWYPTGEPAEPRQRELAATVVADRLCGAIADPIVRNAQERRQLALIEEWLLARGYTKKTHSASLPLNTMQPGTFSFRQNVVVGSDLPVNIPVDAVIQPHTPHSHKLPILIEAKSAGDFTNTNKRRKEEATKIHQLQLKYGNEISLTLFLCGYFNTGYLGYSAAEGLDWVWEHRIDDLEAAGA
The following applies: NEB3, 10 mM MgCl2, 37 C; Table 10 gives FI 4.

Series [4] deals with T4, SalI-HF R107A (Streptomyces albus G) (UniProt Q53608).
T4 sequence: T3 sequence with R107A
The following applies: NEB2, 10 mM MgCl2, 37 C; Table 10 gives FI >=2000.

A further series has as its target T5, PvuII (Proteus vulgaris) (UniProt P23657).
T5 sequence: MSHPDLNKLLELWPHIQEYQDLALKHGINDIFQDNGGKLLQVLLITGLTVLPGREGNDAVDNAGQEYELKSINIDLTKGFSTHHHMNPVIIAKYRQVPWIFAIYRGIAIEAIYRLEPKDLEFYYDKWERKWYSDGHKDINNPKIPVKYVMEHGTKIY
The note with it: NEB1, 10 mM MgCl2, 37 C.

Series [5] deals with T6, PvuII-HF T46G (Proteus vulgaris) (UniProt P23657).
T6 sequence: T5 sequence with T46G
The note with it: NEB4, 10 mM Mg acetate, 37 C.

Series [6] has as its system T7, BspQI-HF K279P/R388F (Bacillus sphaericus).
T7 sequence: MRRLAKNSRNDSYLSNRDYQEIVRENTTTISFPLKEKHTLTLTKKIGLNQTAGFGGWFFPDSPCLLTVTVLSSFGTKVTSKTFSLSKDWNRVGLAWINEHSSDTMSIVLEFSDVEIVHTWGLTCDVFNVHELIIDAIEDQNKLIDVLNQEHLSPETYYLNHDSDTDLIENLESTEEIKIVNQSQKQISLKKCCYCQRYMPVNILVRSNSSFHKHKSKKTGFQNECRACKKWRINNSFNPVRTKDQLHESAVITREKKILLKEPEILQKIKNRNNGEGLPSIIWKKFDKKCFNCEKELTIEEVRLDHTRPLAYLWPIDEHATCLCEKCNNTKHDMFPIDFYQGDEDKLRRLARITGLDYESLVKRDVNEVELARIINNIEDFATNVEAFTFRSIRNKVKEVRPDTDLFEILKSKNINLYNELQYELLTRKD
The note with it: NEB4, 10 mM Mg acetate, 50 C.

Substitutions are numbered along the chain they refer to.

For T7 DNA, the activity (fidelity index) was 64 in series [1] and over 1000 in series [2].
On to lambda DNA HindIII-digested, for which the activity (fidelity index) was 32 in series [3] and over 64000 in series [4].
As to pBR322, the activity (fidelity index) with PvuII (Proteus vulgaris) came to 250; in series [5] it was 500.
Take pUC19: the activity (fidelity index) in series [6] was over 4000.

The values are drawn from US20130115676.
